Common to all, as to test: BIAcore
For orientation: Surface plasmon resonance follows binding to a sensor surface in real time, without labels.

The target in assay [1] is T1, Recombinant human IL-17A/F heterodimer (UniProt Q16552 24-155; Q96PD4 31-163).
Assay [2] concerns the target T2, Human IL-17F (R&D Systems, cat #1335-IL-025/CF) (UniProt Q96PD4 31-163).
T2 chain: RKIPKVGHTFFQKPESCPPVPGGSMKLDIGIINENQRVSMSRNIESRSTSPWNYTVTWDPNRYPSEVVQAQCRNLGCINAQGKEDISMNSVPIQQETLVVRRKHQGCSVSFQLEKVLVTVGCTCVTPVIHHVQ

Assay [3] addresses T3, Human IL-17A (R&D Systems, cat #317-IL-050/CF) (UniProt Q16552 20-155).
The target in assay [4] is T2, Human IL-17F (R&D Systems, cat …).
Assay [5] addresses cyno IL17F.
Assay [6] has as its target cyno IL17F. The source holds these as a separate data set.
Assay [7] deals with T1, Recombinant human IL-17A/F heterodimer. The source holds these as a separate data set.
Assay [8] has as its target T3, Human IL-17A (R&D Systems, cat …). This is another data set of the same source.
The target in the next assay is rhesus IL17A (PUR17200).
Assay [9] deals with T1, Recombinant human IL-17A/F heterodimer. The source holds these as a separate data set.
Assay [10] deals with T2, Human IL-17F (R&D Systems, cat …).
Assay [11] addresses T3, Human IL-17A (R&D Systems, cat …). This is another data set of the same source.
The target in assay [12] is T2, Human IL-17F (R&D Systems, cat …).
For a further assay, the target named is Bi-specific.

These results are taken from patent US20100055103A1 (published 2010).

Where two headings read alike, the source gives them in different places.

One may read the Kd as a measure of binding affinity in units of concentration.

T3 sequence (Q16552 20-155): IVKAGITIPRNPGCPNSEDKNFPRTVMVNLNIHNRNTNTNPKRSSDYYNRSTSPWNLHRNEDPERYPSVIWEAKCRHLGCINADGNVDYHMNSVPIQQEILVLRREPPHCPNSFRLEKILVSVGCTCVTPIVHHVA

B1: YW278.15.9 (antibody, V domains shown)
VH: EVQLVESGGGLVQPGGSLRLSCAASGFTFTDYDISWVRQAPGKGLEWVASIDPYEGYTYYADSVKGRFTISADTSKNTAYLQMNSLRAEDTAVYYCARYLYWSYVMDYWGQGTLVTVSS
VL: DIQMTQSPSSLSASVGDRVTITCRASQDVSTAVAWYQQKPGKAPKLLIYSASFLYSGVPSRFSGSGSGTDFTLTISSLQPEDFATYYCQQSQNPQTTFGQGTKVEIKR
In the case of B1, the Kd in assay [1] is 22.9 pM; in assay [2], 18.1 pM; in assay [3], 15.5 pM.

B2: YW278.15.2.D54E (antibody, V domains shown)
VH: EVQLVESGGGLVQPGGSLRLSCAASGFSFIDYDISWVRQAPGKGLEWVASISPYEGYTYYADSVKGRFTISADTSKNTAYLQMNSLRAEDTAVYYCARYLYWSYVMDYWGQGTLVTVSS
VL: DIQMTQSPSSLSASVGDRVTITCRASQDVSTAVAWYQQKPGKAPKLLIYSASFLYSGVPSRFSGSGSGTDFTLTISSLQPEDFATYYCQQYYIYPATFGQGTKVEIKR
Turning to B2, in assay [2], the dissociation constant Kd worked out at 12 pM.

B3: YW278.15.18.C55S (antibody, V domains shown)
VH: EVQLVESGGGLVQPGGSLRLSCAASGFTFTDYDISWVRQAPGKGLEWVASISPPDSYTYYADSVKGRFTISADTSKNTAYLQMNSLRAEDTAVYYCARYLYWSYVMDYWGQGTLVTVSS
VL: DIQMTQSPSSLSASVGDRVTITCRASQDVSTAVAWYQQKPGKAPKLLIYSASFLYSGVPSRFSGSGSGTDFTLTISSLQPEDFATYYCQQSYTAKLTFGQGTKVEIKR
On to B3, for which binding in assay [4] was characterised by a dissociation constant (Kd) of 19 pM.

B4: YW278.15.18 (antibody, V domains shown)
VH: EVQLVESGGGLVQPGGSLRLSCAASGFTFTDYDISWVRQAPGKGLEWVASISPPDCYTYYADSVKGRFTISADTSKNTAYLQMNSLRAEDTAVYYCARYLYWSYVMDYWGQGTLVTVSS
VL: DIQMTQSPSSLSASVGDRVTITCRASQDVSTAVAWYQQKPGKAPKLLIYSASFLYSGVPSRFSGSGSGTDFTLTISSLQPEDFATYYCQQSYTAKLTFGQGTKVEIKR
In the case of B4, the Kd with cyno IL17F [5] turned out to be 86.1 pM; with cyno IL17F [6] it was 63.2 pM; in [7], 22.5 pM; in [4] it was 29.1 pM; in assay [8], 18.9 pM; with rhesus IL17A (PUR17200), 38.1 pM. The Kd in assay [9] was 14 pM; in [10], 13.5 pM; in [11], 13.7 pM.

B5: YW278.15.3 (antibody, V domains shown)
VH: EVQLVESGGGLVQPGGSLRLSCAASGFTFTDYDISWVRQAPGKGLEWVASISPSDGYTYYADSVKGRFTISADTSKNTAYLQMNSLRAEDTAVYYCARYLYWSYVMDYWGQGTLVTVSS
VL: DIQMTQSPSSLSASVGDRVTITCRASQVISSSLAWYQQKPGKAPKLLIYGASFFYSGVPSRFSGSGSGTDFTLTISSLQPEDFATYYCQQHNDLPLTFGQGTKVEIKR
Turning to B5, the Kd in assay [1] was 93.5 pM; in [2] it was 115 pM; in assay [3] it was 24.2 pM; in assay [9], 16.7 pM; in assay [10], 28.3 pM; in [11], 15.2 pM.

B6: YW278.15.18.C55A (antibody, V domains shown)
VH: EVQLVESGGGLVQPGGSLRLSCAASGFTFTDYDISWVRQAPGKGLEWVASISPPDAYTYYADSVKGRFTISADTSKNTAYLQMNSLRAEDTAVYYCARYLYWSYVMDYWGQGTLVTVSS
VL: DIQMTQSPSSLSASVGDRVTITCRASQDVSTAVAWYQQKPGKAPKLLIYSASFLYSGVPSRFSGSGSGTDFTLTISSLQPEDFATYYCQQSYTAKLTFGQGTKVEIKR
Take B6: in assay [4], binding was put at a Kd of 18.6 pM.

B7: YW278.15.2 (antibody, V domains shown)
VH: EVQLVESGGGLVQPGGSLRLSCAASGFSFIDYDISWVRQAPGKGLEWVASISPYDGYTYYADSVKGRFTISADTSKNTAYLQMNSLRAEDTAVYYCARYLYWSYVMDYWGQGTLVTVSS
VL: DIQMTQSPSSLSASVGDRVTITCRASQDVSTAVAWYQQKPGKAPKLLIYSASFLYSGVPSRFSGSGSGTDFTLTISSLQPEDFATYYCQQYYIYPATFGQGTKVEIKR
B7: the Kd in the assay with cyno IL17F [6] is 209 pM; in assay [9] it was 10.4 pM; in assay [10], 31.5 pM; in assay [11], 11.1 pM.

B8: YW279.1.20 (antibody, V domains shown)
VH: EVQLVESGGGLVQPGGSLRLSCAASGFSFTSYMMSWVRQAPGKGLEWVSTIYPESGATDYADSVKGRFTISADTSKNTAYLQMNSLRAEDTAVYYCAREGYYYSTSIKYYPWFDYWGQGTLVTVSS
VL: DIQMTQSPSSLSASVGDRVTITCRASQRIKRYLAWYQQKPGKAPKLLIYGASSRASGVPSRFSGSGSGTDFTLTISSLQPEDFATYYCQQRFSQHITFGQGTKVEIKR
Regarding B8, binding in assay [2] was characterised by a dissociation constant (Kd) of 1590 pM.

B9: YW279.1.21 (antibody, V domains shown)
VH: EVQLVESGGGLVQPGGSLRLSCAASGFSFTSYMMSWVRQAPGKGLEWVSTIYPESGATDYADSVKGRFTISADTSKNTAYLQMNSLRAEDTAVYYCAREGYYYSTSIKYYPWFDYWGQGTLVTVSS
VL: DIQMTQSPSSLSASVGDRVTITCRASQSISSYLAWYQQKPGKAPKLLIYGASSRASGVPSRFSGSGSGTDFTLTISSLQPEDFATYYCQQRYSWHTTFGQGTKVEIKR
As for B9, the dissociation constant Kd in assay [1] is 11800 pM; in assay [2] it was 82.3 pM; in assay [3] it was 5090 pM.

B10: YW265.01 (antibody, V domains shown)
VL: DIQMTQSPSSLSASVGDRVTITCRASQSISSYLAWYQQKPGKAPKLLIYGASSRASGVPSRFSGSGSGTDFTLTISSLQPEDFATYYCQQYYSSPLTFGQGTKVEIKR
VH: EVQLVESGGGLVQPGGSLRLSCAASGYSFTSPYISWVRQAPGKGLEWVASIFYYSGATDYADSVKGRFTISADTSKNTAYLQMNSLRAEDTAVYYCARGGYGYNQWFYSIYQSYFDYWGQ
Regarding B10, in [12], the dissociation constant Kd turned out to be 620 pM.

B11: YW279.1.22 (antibody, V domains shown)
VH: EVQLVESGGGLVQPGGSLRLSCAASGFSFPSYFISWVRQAPGKGLEWVSMIYPVSGATVYADSVKGRFTISADTSKNTAYLQMNSLRAEDTAVYYCAREGYYYSTSIKYYPWFDYWGQGTLVTVSS
VL: DIQMTQSPSSLSASVGDRVTITCRASQSISSYLAWYQQKPGKAPKLLIYGASSRASGVPSRFSGSGSGTDFTLTISSLQPEDFATYYCQQRYSLPITFGQGTKVEIKR
In the case of B11, the Kd in [1] worked out at 690 pM; in assay [2], 1760 pM; in assay [3], 118 pM.

B12: IL17F (ligand)
chain: RKIPKVGHTFFQKPESCPPVPGGSMKLDIGIINENQRVSMSRNIESRSTSPWNYTVTWDPNRYPSEVVQAQCRNLGCINAQGKEDISMNSVPIQQETLVVRRKHQGCSVSFQLEKVLVTVGCTCVTPVIHHVQ
The molecule B12 came in with a dissociation constant (Kd) in the assay with Bi-specific of 710 pM.
